Tests used:
[1] = target: MBP-tagged delVirB4_CTn4 (NH2-terminally truncated VirB4-like ATPase of the CTn4 locus, C. difficile 630) (Clostridioides difficile strain 630); test: SEC
[2] = target: MBP-tagged delVirB4_CTn4 (NH2-terminally truncated VirB4-like ATPase of the CTn4 locus, C. difficile 630) (Clostridioides difficile strain 630); test: negative-stain transmission electron microscopy
[3] = target: MBP-tagged delVirD4_CTn4 (NH2-terminally truncated VirD4-like ATPase of the CTn4 locus, C. difficile 630) (Clostridioides difficile strain 630); test: SEC
[4] = target: MBP-tagged delVirD4_CTn4 (NH2-terminally truncated VirD4-like ATPase of the CTn4 locus, C. difficile 630) (Clostridioides difficile strain 630); test: negative-stain transmission electron microscopy

| Substance | oligomerization rate [1] | stoichiometry N [1] | stoichiometry N [2] | oligomerization rate [3] | stoichiometry N [3] | stoichiometry N [4] |
| --- | --- | --- | --- | --- | --- | --- |
| MBP-tagged delVirB4_CTn4 (NH2-terminally truncated VirB4-like ATPase of the CTn4 locus, C. difficile 630) (domain or fragment) | 100% | > 6 monomers | 6 to 7 |  |  |  |
| MBP-tagged delVirD4_CTn4 (NH2-terminally truncated VirD4-like ATPase of the CTn4 locus, C. difficile 630) (domain or fragment) |  |  |  | 100% | > 6 monomers | 6 to 7 |

From article doi:10.1101/2021.07.12.452133
